Laboratory results: US20190271710A1 (Janssen / Centocor, published 2019)
One block for each binder: values may come before it.

Key:
[1] = target: T1, calibrant peptide pT3xpT82 (N-terminal acetyl; dPEG4 linker between the two segments; two phosphothreonines (pT) in GSRSR(pT)PSLP(pT)PPTREPKKV; C-terminal amide); test: Simoa pT3xpT82 sandwich assay, calibrant titrated 30 to 0.041 pg/ml
T1 construct: Molecular weight 4551 g/mol
T1 peptide: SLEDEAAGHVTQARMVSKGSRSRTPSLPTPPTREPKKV
Method: (§1) The calibrant peptides were reconstituted to 5 mg/ml in 0.1% phosphoric acid/water, aliquoted to 20 ul and frozen. When ready for use, the calibrant peptide aliquots were thawed and diluted 1:1000 (e.g. 1.5 ul into 1498.5 ul), and the dilutions were diluted […] so that the final concentration of the peptides was 5000 pg/ml. A standard curve with 3× jumps was made, starting at 30 pg/ml.
(§2) Calibrant peptides described in Example 1 were produced. The calibrant peptides contained the core epitopes of pT3 and hT43, or pT3 and pT82 separated by PEG4 linkers, and they were used to generate standard curves. Calibrant peptides were titrated from 30 pg/ml to 0.041 pg/ml in 1:3 jumps in assay buffer and measured with the pT3xhT43 and pT3xpT82 assays. A 4-parameter curve fit data reduction method (4PL, 1/y2 weighted) was used to generate the calibration curve. The lower limit of detection (LLOD) was defined as the calculated calibrant level yielding an AEB equal to the average of the zero calibrator+2.5 standard deviations (SD), including 10% coefficient of variation (CV). With these criteria, the representative data yielded an LLOD of 0.002 pg/ml. The Linear Range of the assay, lower limit of quantification (LLOQ) and upper limit of quantification (ULOQ), was defined as the lowest and highest standard curve points achieving CV<20% and recovery 80-120% of expected. […]

[2] = target: T2, calibrant peptide pT3xhT43 (two phosphothreonines (pT) in GSRSR(pT)PSLP(pT)PPTREPKKV; dPEG4 linkers between the three segments; C-terminal amide); test: Simoa pT3xhT43 sandwich assay, calibrant titrated 30 to 0.041 pg/ml
T2 construct: Molecular weight 6893 g/mol
T2 peptide: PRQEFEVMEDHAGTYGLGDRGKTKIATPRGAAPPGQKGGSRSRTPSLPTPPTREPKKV
Method: as §1, §2

binding result [1]: binds
B1: pT82 mAb (antibody, V domains shown)
VH: EVKLEESGGGLVQPGGSMKLSCVASGFTFSNYWMNWIRQSPEKGLEWVAQIRLQSDNYATRYAESVKGRFTISRDESKTSVYLQMNNLRTEDTGIYYCTGGTTYWGQGTLVTVSA
VL: DIVMTQSQKFMSTSVGDRVSITCKASQNVGTAVAWYQQKPGQSPKLLIYSASIRYTGVPDRFTGSGSGTDFTLTINYMQSEDLADYFCQQFSSYPYTFGGGTKLEIK
notes: The majority assignment is used

binding result [2]: binds
B2: pT3 mouse monoclonal antibody (antibody, V domains shown)
VH: EVKLVESGGDLVKPGGSLKLSCAASGFTFSSYAMSWVRQNPEKRLEWVASISKGGNTYYPNSVKGRFTISRDNARNILYLQMSSLRSEDTALYYCARGWGDYGWFAYWGQVTLVTVSA
VL: DIKMTQSPSSMYASLGERVTITCKASQDINRYLNWFQQKPGKSPKTLIYRANRLLDGVPSRFSGSGSGQDYSLTISSLDYEDMGIYYCLQYDEFPLTFGDGTKLELK
notes: Parental mouse mAb expressed by a mouse hybridoma; Used on capture beads, and as soluble antibody in spiking experiments; also called pT3 mAb
